In PMC6784111:

Tests used:
Test in all cases: SPR; 40 RU of each antibody immobilized on a CM5 chip; oxMIF (MIF treated with 0.2% Proclin300) injected at 3–25 nM in HBS-EP (HEPES 10 mM, NaCl 150 mM, EDTA 3 mM, 0.005% Tween-20); BIAcore T200; 25 °C; 1:1 Langmuir model
[1] = target: BaxM159 variant 1-DIQMAQ (parental anti-oxMIF antibody without the heavy chain C-terminal lysine)
[2] = target: BaxM159 variant 2-DIQMAQ-K (parental anti-oxMIF antibody with the heavy chain C-terminal lysine)
[3] = target: BaxM159 variant 3-EIVLAQ
[4] = target: BaxM159 variant 4-DIQMGQ
[5] = target: BaxM159 variant 5-DIQMAE
[6] = target: BaxM159 variant 6-EIVLGQ
[7] = target: BaxM159 variant 7-EIVLAE
[8] = target: BaxM159 variant 8-DIQMGE
[9] = target: BaxM159 variant 9-EIVLGE

B1: oxidized macrophage migration inhibitory factor (oxMIF) (natural protein)
chain: MPMFIVNTNVPRASVPDGFLSELTQQLAQATGKPPQYIAVHVVPDQLMAFGGSSEPCALCSLHSIGKIGGAQNRSYSKLLCGLLAERLRISPDRVYINYYDMNAANVGWNNSTFA
modifications: converted to its oxidized form by treatment with 0.2% Proclin300
Question: With B1 as the binder, how does the Kd [1] read?
Answer: The Kd was 2.6 nM.

Question: What about the koff [1] of the same binder?
Answer: Its koff is 0.00029 s⁻¹.

Question: What about the kon [1] of the same binder?
Answer: The kon was 110000 M⁻¹ s⁻¹.

Question: What about the Kd [2] of the same binder?
Answer: Its Kd is 3 nM.

Question: What about the koff [2] of the same binder?
Answer: Its koff is 0.00038 s⁻¹.

Question: And the kon [2]?
Answer: The kon was 130000 M⁻¹ s⁻¹.

Question: And the Kd [3]?
Answer: The Kd was 1.5 nM.

Question: And the koff [3]?
Answer: The koff was 0.00031 s⁻¹.

Question: And the kon [3]?
Answer: The kon was 200000 M⁻¹ s⁻¹.

Question: What about the Kd [4] of the same binder?
Answer: Its Kd is 4.3 nM.

Question: And the koff [4]?
Answer: The koff was 0.00056 s⁻¹.

Question: And the kon [4]?
Answer: Its kon is 160000 M⁻¹ s⁻¹.

Question: And the Kd [5]?
Answer: The Kd was 2.5 nM.

Question: What about the koff [5] of the same binder?
Answer: The koff was 0.0004 s⁻¹.

Question: And the kon [5]?
Answer: The kon was 160000 M⁻¹ s⁻¹.

Question: And the Kd [6]?
Answer: Its Kd is 2.7 nM.

Question: What about the koff [6] of the same binder?
Answer: Its koff is 0.00064 s⁻¹.

Question: And the kon [6]?
Answer: Its kon is 260000 M⁻¹ s⁻¹.

Question: And the Kd [7]?
Answer: The Kd was 2.4 nM.

Question: What about the koff [7] of the same binder?
Answer: Its koff is 0.00044 s⁻¹.

Question: What about the kon [7] of the same binder?
Answer: Its kon is 180000 M⁻¹ s⁻¹.

Question: And the Kd [8]?
Answer: The Kd was 4.2 nM.

Question: What about the koff [8] of the same binder?
Answer: The koff was 0.00054 s⁻¹.

Question: What about the kon [8] of the same binder?
Answer: The kon was 130000 M⁻¹ s⁻¹.

Question: What about the Kd [9] of the same binder?
Answer: Its Kd is 1.4 nM.

Question: And the koff [9]?
Answer: The koff was 0.00044 s⁻¹.

Question: And the kon [9]?
Answer: The kon was 310000 M⁻¹ s⁻¹.
